Measurements: patent US20150368338A1 (Janssen / Centocor, published 2015)

T1: IFN-αF (human, UniProt P01568 24-189)
T1 construct: also called IFN-α21; alpha F
T1 chain: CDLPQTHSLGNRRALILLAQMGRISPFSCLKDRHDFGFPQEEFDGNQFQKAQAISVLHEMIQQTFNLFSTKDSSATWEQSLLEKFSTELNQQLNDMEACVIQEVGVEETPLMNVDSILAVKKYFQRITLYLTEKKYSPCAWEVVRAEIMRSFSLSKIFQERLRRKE


Experiments:
Assay in all cases: ProteOn, one antigen concentration
IFN-αJ1 = molecular target: T2, IFN-αJ1 (human, UniProt P01567 24-189)
T2 construct: also called IFN-α7; alpha J1

IFN-α4a = molecular target: T3, IFN-α4a (human, UniProt P05014 24-189)
T3 construct: also called IFN-αM1

IFN-αWA = molecular target: T4, IFN-αWA (human, UniProt P05015 24-189)
T4 construct: also called IFN-α16; alpha WA

IFN-αC = molecular target: T5, IFN-αC (human, UniProt P01566 24-189)
T5 construct: also called IFN-α10; alpha C

IFN-αG = molecular target: T6, IFN-αG (human, UniProt P01569 24-189)
T6 construct: also called IFN-α5; alpha G

IFN-αF = molecular target: T1, IFN-αF
human IFN-ω = molecular target: T7, human IFN-ω (human, UniProt P05000 24-195)
T7 construct: also called interferon omega

Row | Kd (IFN-αJ1) | Kd (IFN-α4a) | Kd (IFN-αWA) | Kd (IFN-αC) | Kd (IFN-αG) | Kd (IFN-αF) | Kd (human IFN-ω) | Binder
1 | 0.151 nM | 0.274 nM | 0.107 nM | 0.052 nM | 0.049 nM | 0.044 nM | 0.034 nM | IFWM3319 (antibody, V domains shown, VH IFWH591, VL IFWL1041; converted mAb; also called IFWB3054) VH: EVQLVQSGAEVKKPGESLKISCKGSGYSFTSYWIGWVRQMPGKGLEWMGIIDPSDSDTRYSPSFQGQVTISADKSISTAYLQWSSLKASDTAMYYCARHPGLNWAPDFDYWGQGTLVTVSS VL: DIQMTQSPSSLSASVGDRVTITCRASQSITGFLNWYQQKPGKAPKLLIYAASSLQSGVPSRFSGSGSGTDFTLTISSLQPEDFATYYCQQSHDFPLTFGQGTKVEIK
2 | 0.411 nM | 0.35 nM | 0.125 nM | 0.096 nM | 0.084 nM | 0.136 nM | 0.048 nM | IFWM3347 (antibody, V domains shown, VH IFWH624, VL IFWL1004; converted mAb; also called IFWB3082) VH: EVQLVQSGAEVKKPGESLKISCKGSGYSFTSYWIGWVRQMPGKGLEWMGIIDPSDSDTAYSPSFQGQVTISADKSISTAYLQWSSLKASDTAMYYCARHPGLNWAPDFDYWGQGTLVTVSS VL: DIQMTQSPSSLSASVGDRVTITCRASQSIAEFLNWYQQKPGKAPKLLIYFASSLQSGVPSRFSGSGSGTDFTLTISSLQPEDFATYYCQQSIDFPLTFGQGTKVEIK
3 | 0.275 nM | 0.445 nM | 0.134 nM | 0.104 nM | 0.063 nM | 0.088 nM | 0.008 nM | IFWM3341 (antibody, V domains shown, VH IFWH624, VL IFWL991; converted mAb; also called IFWB3076) VH: EVQLVQSGAEVKKPGESLKISCKGSGYSFTSYWIGWVRQMPGKGLEWMGIIDPSDSDTAYSPSFQGQVTISADKSISTAYLQWSSLKASDTAMYYCARHPGLNWAPDFDYWGQGTLVTVSS VL: DIQMTQSPSSLSASVGDRVTITCRASQSINRFLNWYQQKPGKAPKLLIYAASSLQSGVPSRFSGSGSGTDFTLTISSLQPEDFATYYCQQAIDLPFTFGQGTKVEIK
4 | 0.505 nM | 0.48 nM | 0.17 nM | 0.105 nM | 0.086 nM | 0.117 nM | 0.052 nM | IFWM3346 (antibody, V domains shown, VH IFWH624, VL IFWL1001; converted mAb; also called IFWB3081) VH: EVQLVQSGAEVKKPGESLKISCKGSGYSFTSYWIGWVRQMPGKGLEWMGIIDPSDSDTAYSPSFQGQVTISADKSISTAYLQWSSLKASDTAMYYCARHPGLNWAPDFDYWGQGTLVTVSS VL: DIQMTQSPSSLSASVGDRVTITCRASQSIGDFLNWYQQKPGKAPKLLIYFASSLQSGVPSRFSGSGSGTDFTLTISSLQPEDFATYYCQQALDFPLTFGQGTKVEIK
5 | 0.079 nM | 0.159 nM | 0.058 nM | 0.033 nM | 0.036 nM | 0.024 nM | 0.033 nM | IFWM3321 (antibody, V domains shown, VH IFWH591, VL IFWL1048; converted mAb; also called IFWB3056) VH: EVQLVQSGAEVKKPGESLKISCKGSGYSFTSYWIGWVRQMPGKGLEWMGIIDPSDSDTRYSPSFQGQVTISADKSISTAYLQWSSLKASDTAMYYCARHPGLNWAPDFDYWGQGTLVTVSS VL: DIQMTQSPSSLSASVGDRVTITCRASQSIDGALNWYQQKPGKAPKLLIYFASSLQSGVPSRFSGSGSGTDFTLTISSLQPEDFATYYCQQAYDFPLTFGQGTKVEIK
6 | 0.123 nM | 0.174 nM | 0.102 nM | 0.056 nM | 0.065 nM | 0.052 nM | 0.007 nM | IFWM3349 (antibody, V domains shown, VH IFWH624, VL IFWL1007; converted mAb; also called IFWB3084) VH: EVQLVQSGAEVKKPGESLKISCKGSGYSFTSYWIGWVRQMPGKGLEWMGIIDPSDSDTAYSPSFQGQVTISADKSISTAYLQWSSLKASDTAMYYCARHPGLNWAPDFDYWGQGTLVTVSS VL: DIQMTQSPSSLSASVGDRVTITCRASQSIGKSLNWYQQKPGKAPKLLIYFASSLQSGVPSRFSGSGSGTDFTLTISSLQPEDFATYYCQQSYDFPLTFGQGTKVEIK
7 | 0.164 nM | 0.089 nM | 0.049 nM | 0.083 nM | 0.02 nM | 0.064 nM | 0.05 nM | IFWM3348 (antibody, V domains shown, VH IFWH624, VL IFWL1006; converted mAb; also called IFWB3083) VH: EVQLVQSGAEVKKPGESLKISCKGSGYSFTSYWIGWVRQMPGKGLEWMGIIDPSDSDTAYSPSFQGQVTISADKSISTAYLQWSSLKASDTAMYYCARHPGLNWAPDFDYWGQGTLVTVSS VL: DIQMTQSPSSLSASVGDRVTITCRASQSIGGFLNWYQQKPGKAPKLLIYFASSLQSGVPSRFSGSGSGTDFTLTISSLQPEDFATYYCQQSYSLPITFGQGTKVEIK
8 | 0.269 nM | 0.589 nM | 0.095 nM | 0.142 nM | 0.014 nM | 0.164 nM | 0.068 nM | IFWM3342 (antibody, V domains shown, VH IFWH624, VL IFWL992; converted mAb; also called IFWB3077) VH: EVQLVQSGAEVKKPGESLKISCKGSGYSFTSYWIGWVRQMPGKGLEWMGIIDPSDSDTAYSPSFQGQVTISADKSISTAYLQWSSLKASDTAMYYCARHPGLNWAPDFDYWGQGTLVTVSS VL: DIQMTQSPSSLSASVGDRVTITCRASQSIGSFLNWYQQKPGKAPKLLIYFASSLQSGVPSRFSGSGSGTDFTLTISSLQPEDFATYYCQQSYSIPITFGQGTKVEIK
9 | 0.157 nM | 0.237 nM | 0.083 nM | 0.065 nM | 0.06 nM | 0.063 nM | 0.02 nM | IFWM3343 (antibody, V domains shown, VH IFWH624, VL IFWL997; converted mAb; also called IFWB3078) VH: EVQLVQSGAEVKKPGESLKISCKGSGYSFTSYWIGWVRQMPGKGLEWMGIIDPSDSDTAYSPSFQGQVTISADKSISTAYLQWSSLKASDTAMYYCARHPGLNWAPDFDYWGQGTLVTVSS VL: DIQMTQSPSSLSASVGDRVTITCRASQSIGSALNWYQQKPGKAPKLLIYFASSLQSGVPSRFSGSGSGTDFTLTISSLQPEDFATYYCQQSYDFPLTFGQGTKVEIK
10 | 0.092 nM | 0.111 nM | 0.091 nM | 0.022 nM | 0.033 nM | 0.032 nM | 0.011 nM | IFWM3325 (antibody, V domains shown, VH IFWH591, VL IFWL1060; converted mAb; also called IFWB3060) VH: EVQLVQSGAEVKKPGESLKISCKGSGYSFTSYWIGWVRQMPGKGLEWMGIIDPSDSDTRYSPSFQGQVTISADKSISTAYLQWSSLKASDTAMYYCARHPGLNWAPDFDYWGQGTLVTVSS VL: DIQMTQSPSSLSASVGDRVTITCRASQSIRNSLNWYQQKPGKAPKLLIKWASSLQSGVPSRFSGSGSGTDFTLTISSLQPEDFATYYCQQLYDWPLTFGQGTKVEIK
11 | 0.274 nM | 0.442 nM | 0.105 nM | 0.161 nM | 0.112 nM | 0.14 nM | 0.078 nM | IFWM3344 (antibody, V domains shown, VH IFWH624, VL IFWL998; converted mAb; also called IFWB3079) VH: EVQLVQSGAEVKKPGESLKISCKGSGYSFTSYWIGWVRQMPGKGLEWMGIIDPSDSDTAYSPSFQGQVTISADKSISTAYLQWSSLKASDTAMYYCARHPGLNWAPDFDYWGQGTLVTVSS VL: DIQMTQSPSSLSASVGDRVTITCRASQSISKFLNWYQQKPGKAPKLLIYFASSLQSGVPSRFSGSGSGTDFTLTISSLQPEDFATYYCQQSNTLPFTFGQGTKVEIK
12 | 0.127 nM | 0.272 nM | 0.086 nM | 0.042 nM | 0.058 nM | 0.033 nM | 0.04 nM | IFWM3322 (antibody, V domains shown, VH IFWH591, VL IFWL1051; converted mAb; also called IFWB3057) VH: EVQLVQSGAEVKKPGESLKISCKGSGYSFTSYWIGWVRQMPGKGLEWMGIIDPSDSDTRYSPSFQGQVTISADKSISTAYLQWSSLKASDTAMYYCARHPGLNWAPDFDYWGQGTLVTVSS VL: DIQMTQSPSSLSASVGDRVTITCRASQSIADFLNWYQQKPGKAPKLLIYFASSLQSGVPSRFSGSGSGTDFTLTISSLQPEDFATYYCQQSHSFPLTFGQGTKVEIK
13 | 0.124 nM | 0.201 nM | 0.056 nM | 0.048 nM | 0.024 nM | 0.041 nM | 0.004 nM | IFWM3340 (antibody, V domains shown, VH IFWH624, VL IFWL983; converted mAb; also called IFWB3075) VH: EVQLVQSGAEVKKPGESLKISCKGSGYSFTSYWIGWVRQMPGKGLEWMGIIDPSDSDTAYSPSFQGQVTISADKSISTAYLQWSSLKASDTAMYYCARHPGLNWAPDFDYWGQGTLVTVSS VL: DIQMTQSPSSLSASVGDRVTITCRASQSIDGSLNWYQQKPGKAPKLLIYFASSLQSGVPSRFSGSGSGTDFTLTISSLQPEDFATYYCQQSYDFPLTFGQGTKVEIK
14 | 0.169 nM | 0.324 nM | 0.111 nM | 0.072 nM | 0.092 nM | 0.12 nM | 0.004 nM | IFWM3345 (antibody, V domains shown, VH IFWH624, VL IFWL1000; converted mAb; also called IFWB3080) VH: EVQLVQSGAEVKKPGESLKISCKGSGYSFTSYWIGWVRQMPGKGLEWMGIIDPSDSDTAYSPSFQGQVTISADKSISTAYLQWSSLKASDTAMYYCARHPGLNWAPDFDYWGQGTLVTVSS VL: DIQMTQSPSSLSASVGDRVTITCRASQSITNFLNWYQQKPGKAPKLLIYFASSLQSGVPSRFSGSGSGTDFTLTISSLQPEDFATYYCQQSLDFPLTFGQGTKVEIK
15 | 0.061 nM | 0.089 nM | 0.041 nM | 0.02 nM | 0.033 nM | 0.013 nM | 0.021 nM | IFWM3320 (antibody, V domains shown, VH IFWH591, VL IFWL1047; converted mAb; also called IFWB3055) VH: EVQLVQSGAEVKKPGESLKISCKGSGYSFTSYWIGWVRQMPGKGLEWMGIIDPSDSDTRYSPSFQGQVTISADKSISTAYLQWSSLKASDTAMYYCARHPGLNWAPDFDYWGQGTLVTVSS VL: DIQMTQSPSSLSASVGDRVTITCRASQSINGVLNWYQQKPGKAPKLLIYFASSLQSGVPSRFSGSGSGTDFTLTISSLQPEDFATYYCQQSHDFPLTFGQGTKVEIK
